# Laboratory results taken from doi:10.1101/058016.
# How the values were obtained:
# [1] = biological target: PDZ1 of PSD-95 (residues 61-151), soluble recombinant domain (murine) (UniProt Q62108); experiment: SPR
# [2] = biological target: calmodulin (CaM), used with Ca2+ (UniProt P0DP23); experiment: SPR
# [3] = biological target: PDZ3 of PSD-95 (residues 302-402), soluble recombinant domain (murine) (UniProt Q62108); experiment: SPR
# [4] = biological target: calmodulin on CaM-Sepharose 4B (UniProt P0DP23); experiment: pull-down
# [5] = biological target: PDZ123 of PSD-95 (residues 61-403), soluble recombinant fragment with all three PDZ domains (murine) (UniProt Q62108); experiment: SPR
# [6] = biological target: PDZ123 (PSD-95 residues 61-402)-HaloTag fusion on HaloLink resin (murine) (UniProt Q62108); experiment: pull-down
substance,measurement,setting,value
"r-synGAP (soluble recombinant synGAP, residues 103-1293 of synGAP A1-α1) (domain or fragment)",Kd,[1],140 nM
same,Kd,[2],9 nM
same,Kd,[3],730 nM
same,Kd,[4],31 nM
r-synGAP S1283D (domain or fragment),fold increase of KDapp over wild-type r-synGAP,[5],4 fold
same,percent reduction of binding relative to wild-type,[6],50%
r-synGAP phosphorylated by CaMKII (domain or fragment),fold increase of KDapp over unphosphorylated r-synGAP,[5],10 fold
"sr-synGAP (C-terminal truncated synGAP, residues 103-725 of synGAP A1-α1) (domain or fragment)",Kd,[4],210 nM
